Test results: patent US20240277844A1

Target: anti-CD3 idiotype ScFv (CAR6) fused to the 28z-CAR-membrane-bound IL-15 construct, on cord blood-derived NK cells
Experiment: cell-based or functional assay

Max Activity, CCL5 release (pg/ml), CBNK/CAR6 cells + Ramos/HiBiT: 6.9 pg/mL
Max Activity, FasL release (pg/ml), CBNK/CAR6 cells + Ramos/HiBiT: 16.4 pg/mL
Max Activity, Granzyme A release (pg/ml), CBNK/CAR6 cells + Ramos/HiBiT: 643 pg/mL
Max Activity, Granzyme B release (pg/ml), CBNK/CAR6 cells + Ramos/HiBiT: 239 pg/mL
Max Activity, IFNγ release (pg/ml), CBNK/CAR6 cells + Ramos/HiBiT: 45.6 pg/mL
Max Activity, TNFα release (pg/ml), CBNK/CAR6 cells + Ramos/HiBiT: 11.9 pg/mL
Substance: REGN1979 (bispecific antibody)
Max Activity, Cytotoxicity (%), CBNK/CAR6 cells + Ramos/HiBiT: 25.5%
